Results from PMC8423587 (Nature chemical biology, 2019).

Molecular target: T1, ELIC 7′C pore mutant (L238C in the cysteine-free background C300S/C313S) (Erwinia (as in the name Erwinia …))
T1 chain: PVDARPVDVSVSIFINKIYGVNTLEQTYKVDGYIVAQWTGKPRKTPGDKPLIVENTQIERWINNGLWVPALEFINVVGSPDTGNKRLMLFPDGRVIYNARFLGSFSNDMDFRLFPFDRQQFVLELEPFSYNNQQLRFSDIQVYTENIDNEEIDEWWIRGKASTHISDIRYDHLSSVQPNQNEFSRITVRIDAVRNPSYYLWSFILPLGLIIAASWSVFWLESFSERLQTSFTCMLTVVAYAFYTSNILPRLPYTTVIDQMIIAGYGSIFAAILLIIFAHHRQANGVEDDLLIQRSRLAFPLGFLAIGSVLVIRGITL
Experiment: crystal structure

B1: nanobody 72 (VHH)
VHH: QVQLQESGGGLVQAGGSLRLSCAASGRIFSTNVMGWFRQAPGKEREFVATVGRIGGSTVYADFVKGRFTLSRDNAKNMVYLQMNSLKPEDTAVYYCGARIGGSDRLAPENYGYWGQGTQVTVSS
Question: With B1 as the binder, how does the “stoichiometry N” value read?
Answer: 5 Nb72 per ELIC pentamer
